Laboratory results: patent US20250000988A1, “EPHA2 BICYCLIC PEPTIDE LIGAND AND CONJUGATE THEREOF” (priority 2021, published 2025)
Read-outs that look alike come from different tables or passages of the source. Numbered stars: 1 amine (or outer) side, 2 acyl side, 3 side chain; on linkers, the order of the positions; unused ones are H or OH. Bridge positions count the residues as written; N and C are the ends. Square brackets hold non-standard residues; d marks the D form. Peptide text beside a SMILES is read from it. I, II: the chains in the order shown. * marks the point of attachment. X3 = O=C(CCCC(=O)NCCC(=O)[*:1])NCCOCCOCCN(CC(=O)[*:2])CC(=O)[*:3]; TATA = O=C(CC[*:1])N1CN(C(=O)CC[*:2])CN(C(=O)CC[*:3])C1; Dolaproine = CO[C@@H]([C@@H]1CCCN1)[C@@H](C)C(=O)O; Dil = CC[C@H](C)[C@H](NC)[C@@H](CC(=O)O)OC; X2 = O=C(CCCC(=O)[*:2])NCCC(=O)[*:1]; PABC = O=C(OCc1ccc(N[*:1])cc1)[*:2]; X1 = C[C@@H](N*)[C@@H](O)c1ccccc1; Hyp = O=C(O)[C@@H]1C[C@@H](O)CN1; hArg = N=C(N)NCCCC[C@H](N)C(=O)O; Cit = NC(=O)NCCC[C@H](N)C(=O)O; NMeV = CN[C@H](C(=O)O)C(C)C; hCys = N[C@@H](CCS)C(=O)O; Sar = CNCC(=O)O

Columns and labels:
[1] = system: PC3 cells subcutaneous transplanted tumor; assay: Mouse PC3 cells subcutaneous in vivo transplanted tumor model; design: species or system CB-17 SCID mice; settings: 0.5 mg/kg intravenously, once a week, 35 days
Method: Human prostate cancer PC3 cells were placed in an RPMI-1640 medium (supplemented with 10% fetal bovine serum and 1% penicillin-streptomycin solution) and cultured at 37° C. Conventional digestion treatment with trypsin was carried out twice a week for passage. When the cell saturation was 80%-90%, and the number reached the requirement, the cells were collected, counted, and inoculated. Male CB-17 SCID mice (from Beijing Vital River Laboratory Animal Technology Co., Ltd.) were subcutaneously inoculated with 0.1 mL (2×10^6) of PC3 cells (plus matrigel, with the volume ratio of 1:1) on the right back. When the average tumor volume reached about 80-120 mm^3, grouping and administration were performed (marked as Day 0). For the solvent group, 50 mM of acetic acid and 10% sucrose solution (pH=5) were administered; and for the administration group, 0.5 mg/kg of compound 2, compound 4 or compound 13 was intravenously administered. The administration frequency was once a week and the administration cycle was 35 days (Day 0-Day 34). After grouping, the tumor diameter was measured twice a week with a vernier caliper. The formula for calculating the tumor volume was: V=0.5×a×b^2, where a and b represented the long and short diameters of the tumor, respectively. The tumor inhibitory effect of the compound was evaluated by TGI (%)= [1−(average tumor volume at the end of administration in the treatment group-average tumor volume at the beginning of administration in the treatment group)/(average tumor volume at the end of treatment in the solvent control group-average tumor volume at the beginning of treatment in the solvent control group)]×100%. The tumor growth curve and the animal body weight change curve were as shown in FIG. 1 and FIG. 2, respectively.

PC3 cells = assay: PC3 cell proliferation inhibition assay; assay type: cell-based, human
Method: PC3 cell culture conditions: RPMI-1640+10% FBS+1% penicillin-streptomycin solution. The cells were cultured in a 37° C., 5% CO2 incubator. On the first day, the PC3 cells in the exponential growth phase were collected and plated in a 96-well cell culture plate at a density of 500 cells/well (90 μL/well). The cells were cultured overnight in a 37° C., 5% CO2 incubator. The next day, 10 μL of the compound at different concentrations was added to each well so that the final concentration of DMSO in each well was 0.1%. The mixture was cultured in a 37° C., 5% CO2 incubator for 3 days. After the completion of culture, 50 μL of detection solution (Cell Viability Assay, Promega, G7573) was added to each well. The mixture was mixed uniformly for 2 minutes and incubated at room temperature for 10 minutes. The chemiluminescence reading was detected by a microplate reader. The results were processed according to formula (1), the proliferation inhibition rate of the compound at different concentrations was calculated, and the IC50 value of the compound with an inhibition rate of 50% was calculated using origin9.2 software, wherein RLUcompound was the readout of the treated group, and RLUcontrol was the average value of the solvent control group.

MOLP8 cells = assay: MOLP8 cell proliferation inhibition assay; assay type: cell-based, human; settings: MOLP8 cells (EphA2 negative cell), incubated 5 days
Method: Human multiple myeloma MOLP8 cells purchased from DSMZ were placed in complete RPMI-1640 medium (supplemented with 20% fetal bovine serum) and cultured at 37° C. and 5% CO2. The cells in the exponential growth phase were collected, and the cell suspension was adjusted to 8000 cells/135 μL with the culture medium. 135 μl of the cell suspension was added to each well of a 96-well cell culture plate and incubated overnight. The next day, compounds at different concentrations were added, and the plate was placed in the incubator and incubated for 5 days. After the completion of culture, according to operation instructions for a CellTiter-Glo kit (Promega, Cat #G7573), 75 μL of CTG solution, which was already pre-melted and equilibrated to room temperature, was added to each well, and the mixture was uniformly mixed for 2 minutes using a microplate shaker. The plate was placed at room temperature for 10 minutes, and then […] signal values were measured using an Envision 2104 plate reader (PerkinElmer). The cell proliferation inhibition rate was calculated according to the formula [(1−(RLUcompound−RLUblank)/(RLUcontrol−RLUblank))×100%]. The IC50 value was obtained by four-parameter nonlinear fitting using GraphPad Prism software.

[2] = Pharmacokinetic test in monkeys; settings: cynomolgus monkey, in vivo, iv, monkey plasma; for AUC(0-t) / Cmax / half-life: 1 mg/kg
Method: 4.1 Experimental animals: male cynomolgus monkeys, 3-5 kg, 3-6 years old, 3 monkeys/compound. Purchased from Suzhou Xishan Biotechnology Inc.
4.2 Experimental method: on the day of the test, 3 monkeys were randomly grouped according to their body weights. The animals were fasted with water available for 14 to 18 h one day before the administration, and were fed 4 h after the administration.
Solvent for intravenous administration: 5% DMA+95% (20% SBE-CD).
Before and after the administration, 1.0 mL of blood samples were drawn from the limb veins and placed in an EDTAK2 centrifuge tube. Centrifugation was carried out at 5000 rpm at 4° C. for 10 min, and the plasma was collected. The blood collection time points for the intravenous administration group were: 0, 2 min, 5 min, 15 min, 30 min, 1 h, 2 h, 4 h, 6 h, 8 h, and 24 h. Before analysis and detection, all samples were stored at −80° C., and a quantitative analysis of samples was performed using LC-MS/MS.

[3] = Pharmacokinetic test in rats; design: species or system SD rats; settings: in vivo, iv, rat plasma, i.v. 1 mg/kg, analyte PDC
Method: 3.1 Experimental animals: male SD rats, about 220 g, 6-8 weeks old, 3 rats/compound. Purchased from Chengdu Ddossy Experimental Animals Co., Ltd.
3.2 Experimental design: on the day of the test, 3 SD rats were randomly grouped according to their body weights. The animals were fasted with water available for 12 to 14 h one day before the administration, and were fed 4 h after the administration.
Before and after the administration, 0.15 m1 of blood was taken from the orbit of the animals under isoflurane anesthesia and placed in an EDTAK2 centrifuge tube. The blood was centrifuged at 5000 rpm and 4° C. for 10 min to collect plasma. The blood collection time points for the intravenous administration group and intragastric administration group were: 0, 5 min, 15 min, 30 min, 1 h, 2 h, 4 h, 6 h, 8 h and 24 h. Before analysis and detection, all samples were stored at −80° C., and a quantitative analysis of samples was performed using LC-MS/MS.

[4] = i.v. 1 mg/kg of compound 4, analyte MMAE

CC[C@H](C)[C@@H]([C@@H](CC(=O)N1CCC[C@H]1[C@H](OC)[C@@H](C)C(=O)N[C@H](C)[C@@H](O)c1ccccc1)OC)N(C)C(=O)[C@@H](NC(=O)[C@H](C(C)C)N(C)C(=O)OCc1ccc(NC(=O)[C@H](CCCNC(N)=O)NC(=O)[C@@H](NC(=O)CCCC(=O)NCCC(=O)N(C)CC(=O)N(C)CC(=O)N(C)CC(=O)N(C)CC(=O)N(C)CC(=O)N(C)CC(=O)N(C)CC(=O)N(C)CC(=O)N(C)CC(=O)N(C)CC(=O)N[C@@H](C)C(=O)N[C@@H](CCCCNC(=N)N)C(=O)N[C@@H](CC(=O)O)C(=O)N[C@H]2CSCCC(=O)N3CN4CN(C3)C(=O)CCSC[C@H](NC(=O)[C@H](CC(C)C)NC(=O)[C@@H]3CCCN3C(=O)[C@H](CC(N)=O)NC(=O)[C@H](C(C)C)NC(=O)[C@H](CC(C)C)NC(=O)[C@@H]3C[C@@H](O)CN3C2=O)C(=O)N[C@@H](CC(C)C)C(=O)N[C@@H](Cc2c[nH]cn2)C(=O)N2CCC[C@H]2C(=O)N[C@H](CC(=O)O)C(=O)N[C@@H](Cc2c[nH]c3ccccc23)C(=O)N[C@@H](CCCCNC(=N)N)C(=O)N[C@H](C(N)=O)CCSCCC4=O)C(C)C)cc1)C(C)C [Compound 2] (I: [Sar][Sar][Sar][Sar][Sar][Sar][Sar][Sar][Sar][Sar]A[hArg]DC[Hyp]LVNPLCLHP[dD]W[hArg][hCys]-NH2 / II: V[Cit][PABC][NMeV]V[Dil][Dolaproine]-X1; linker I:14-I:21-I:28 via TATA; linker I:N-II:N via X2)
tolerability [1]: well tolerated | IC50 (PC3 cells; read-out: IC50 value): 3.1 nM

I: [Sar][Sar][Sar][Sar][Sar][Sar][Sar][Sar][Sar][Sar]A[hArg]D[hCys][Hyp]LVNPLCLHP[dD]W[hArg]C-NH2 / II: V[Cit][PABC][NMeV]V[Dil][Dolaproine]-X1 / III: V[Cit][PABC][NMeV]V[Dil][Dolaproine]-X1 (linker I:14-I:21-I:28 via TATA; linker I:N-II:N-III:N via X3) [Compound 17]
Max inh. % 10 μM (PC3 cells; 10 μM): 69.4% | IC50 (PC3 cells; cultured 3 days with compound, read-out: IC50): ≤ 10 nM | IC50 (PC3 cells; read-out: IC50 value): 1 nM

CC[C@H](C)[C@@H]([C@@H](CC(=O)N1CCC[C@H]1[C@H](OC)[C@@H](C)C(=O)N[C@H](C)[C@@H](O)c1ccccc1)OC)N(C)C(=O)[C@@H](NC(=O)[C@H](C(C)C)N(C)C(=O)OCc1ccc(NC(=O)[C@H](CCCNC(N)=O)NC(=O)[C@@H](NC(=O)CCCC(=O)NCCC(=O)N(C)CC(=O)N(C)CC(=O)N(C)CC(=O)N(C)CC(=O)N(C)CC(=O)N(C)CC(=O)N(C)CC(=O)N(C)CC(=O)N(C)CC(=O)N(C)CC(=O)N[C@@H](C)C(=O)N[C@@H](CCCCNC(=N)N)C(=O)N[C@@H](CC(=O)O)C(=O)N[C@H]2CCSCCC(=O)N3CN4CN(C3)C(=O)CCSC[C@H](NC(=O)[C@H](CC(C)C)NC(=O)[C@@H]3CCCN3C(=O)[C@H](CC(N)=O)NC(=O)[C@H](C(C)C)NC(=O)[C@H](CC(C)C)NC(=O)[C@@H]3C[C@@H](O)CN3C2=O)C(=O)N[C@@H](CC(C)C)C(=O)N[C@@H](Cc2c[nH]cn2)C(=O)N2CCC[C@H]2C(=O)N[C@H](CC(=O)O)C(=O)N[C@@H](Cc2c[nH]c3ccccc23)C(=O)N[C@@H](CCCCNC(=N)N)C(=O)N[C@H](C(N)=O)CCSCCC4=O)C(C)C)cc1)C(C)C [Compound 13] (I: [Sar][Sar][Sar][Sar][Sar][Sar][Sar][Sar][Sar][Sar]A[hArg]D[hCys][Hyp]LVNPLCLHP[dD]W[hArg][hCys]-NH2 / II: V[Cit][PABC][NMeV]V[Dil][Dolaproine]-X1; linker I:14-I:21-I:28 via TATA; linker I:N-II:N via X2)
tolerability [1]: well tolerated

CC[C@H](C)[C@@H]([C@@H](CC(=O)N1CCC[C@H]1[C@H](OC)[C@@H](C)C(=O)N[C@H](C)[C@@H](O)c1ccccc1)OC)N(C)C(=O)[C@@H](NC(=O)[C@H](C(C)C)N(C)C(=O)OCc1ccc(NC(=O)[C@H](CCCNC(N)=O)NC(=O)[C@@H](NC(=O)CCCC(=O)NCCC(=O)N(C)CC(=O)N(C)CC(=O)N(C)CC(=O)N(C)CC(=O)N(C)CC(=O)N(C)CC(=O)N(C)CC(=O)N(C)CC(=O)N(C)CC(=O)N(C)CC(=O)N[C@@H](C)C(=O)N[C@@H](CCCCNC(=N)N)C(=O)N[C@@H](CC(=O)O)C(=O)N[C@H]2CCSCCC(=O)N3CN4CN(C3)C(=O)CCSC[C@H](NC(=O)[C@H](CC(C)C)NC(=O)[C@@H]3CCCN3C(=O)[C@H](CC(N)=O)NC(=O)[C@H](C(C)C)NC(=O)[C@H](CC(C)C)NC(=O)[C@@H]3C[C@@H](O)CN3C2=O)C(=O)N[C@@H](CC(C)C)C(=O)N[C@@H](Cc2c[nH]cn2)C(=O)N2CCC[C@H]2C(=O)N[C@H](CC(=O)O)C(=O)N[C@@H](Cc2c[nH]c3ccccc23)C(=O)N[C@@H](CCCCNC(=N)N)C(=O)N[C@H](C(N)=O)CSCCC4=O)C(C)C)cc1)C(C)C [Compound 4] (I: [Sar][Sar][Sar][Sar][Sar][Sar][Sar][Sar][Sar][Sar]A[hArg]D[hCys][Hyp]LVNPLCLHP[dD]W[hArg]C-NH2 / II: V[Cit][PABC][NMeV]V[Dil][Dolaproine]-X1; linker I:14-I:21-I:28 via TATA; linker I:N-II:N via X2)
tolerability [1]: well tolerated | IC50 (MOLP8 cells): 144 nM | AUC(0-t) [2, 4]: 20.8 ng·h/mL | Cmax [2, 4]: 3.71 ng/mL | half-life [2, 4]: 1460 min | AUC(0-t) ([2]; i.v. 1 mg/kg, analyte PDC): 3030 ng·h/mL | Cmax ([2]; i.v. 1 mg/kg, analyte PDC): 7630 ng/mL | half-life ([2]; i.v. 1 mg/kg, analyte PDC): 38.6 min | clearance ([2]; i.v. 1 mg/kg, analyte PDC): 5.57 mL/min/kg | Vd ([2]; i.v. 1 mg/kg, analyte PDC, read-out: Vdss): 0.179 L/kg | IC50 (PC3 cells; read-out: IC50 value): 2.9 nM | AUC(0-t) [3]: 1470 ng·h/mL | Cmax [3]: 6530 ng/mL | clearance [3]: 11 mL/min/kg | half-life [3]: 16.3 min | Vd ([3]; read-out: Vdss): 0.233 L/kg
